Assay results reported in the domain aggregation screens of Martell et al. (2025).

Assay: soluble fraction after stress (log2 fold change); higher = more stays soluble; pooled small domains, quantitative proteomics
Details: stress: pH 4
Summary of the method: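 After pH 4 stress, pooled custom libraries of small protein domains were quantified with high-throughput quantitative proteomics. Aggregation propensity is taken from the fold change in each domain's soluble amount following the acid stress. The scale is log2, where higher values mean more stayed soluble.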

Sequence | soluble fraction (log2)
HMDSKKNLLGKNGLAFTTLRPAGTVLIDGQRHDVISNGDMIPKGATVRVIAIEGASITVEALPD | -0.309
HMDDPLSQLTPREREVLELMASGASNQGIADALVITVRAVEKYVSSIFGKLGLPSTGSESRRVLAVLTFLR | -1.32
HMGAPLAVGDSVRVVVSGPRAFVYTAPNGALSGAVRNGAAFTVLELSPDNTWARIGSGEWIKVEFLATG | -0.373
HMLLAPLRLGAAPDIKAQAPLATILARHNGEMEAKDLWQRFGGEIDAFYLQLKTEVAHGWIVEPEPA | 0.0787
HMSPEVEEISIDHLKAGMRILSDLRLPNGTLVAPKGSVVDAHFIKIVENYVISYFGNPFPDRIKVIM | 0.144
HMKQISQNIHRLRKEKGMSQEQLAQALHVTRQTVSAWERGIAQPSLDVLGQIAQLLGVEPERLLYGE | -0.16
HMSSYAEVMERSKYLQLHKYKIWKSETDGFWRTYYLNEQGKRKMKKLKHSEDMIDFVIEYVQNNE | -1.06
HMGLSAALKARLREVINEMAKSGAQPKLREWALAEGIGNFAKPETPEAAEAVIAKAQELLAEA | 0.429
HMNLWIDNTQVINDWTEGASERSGSIYLTAGVKPIKMQYFDSVLNAKAILRWQGPGINKSVVPSSALTPG | -0.209
HMLKKRKPMSGVGVIVKGMLTGTVTGTDGSYALKARPNDELSFSFLGYKTQEVFVGSKSTIDITLVDEA | -0.0294
HMTEFWTGPITTVTKANFADWTLDTNQDRITANVWLTRADSKGLFNITPGKETAFDIVDYLSPLDTEWA | -1.82
HMRHEDLSPAQKAAALVVAVGSENAAQVLRHLSEEEVEILAGEVARLGEVDPDVVDSVMREVYEQMMGH | -0.929
HMVVPELNLAQQDVLRALRQRGRATADHLSVDTHRPVSEVMGILLGLEIAEVLYRVEGGWFVPKTAR | -1.04
HMEKIKNLTVTEFNLIANKNPSGSYDRITREALLHIIHKLESSYEAHTDLERKLFYKFRKAKFNAL | -0.715
HMVSEDELLARIALLPYPQAKILLEERLSHDPANAKVRQLYLELAKKSGDHTEVTRHNSLLY | 0.0149
HMGKRRGLKVAEEVFADRGYNPDGTLVNRSLPGAFVKDPDEAIARVIKMVKTKKVTAVNGEEIDIAADSI | -0.462
HMDVAAQITYAMRTMGVAPIPRNYELFYEAYIGSNPALTKELAALGSKATQEELDELGQQYF | -1.43
HMDKIEVVEVDMSKPYEDMTVTELQNVILDKLASNGPVTNQMKKDVSENIYHDSLVNWAKSF | -0.541
HMKALPSAEDVALARESGRVLSTVLQTRAETQQIDFHDDKGAVRSVTLPTTALRLLLDVLTEIGQGNAV | -0.161
HMGDLAAAGNHTLEVMGFPQHPDESYRHFVGNGIPKLIERMLPAGHDKETEQKAYDIFMEYYSAHK | -0.439
HMDTVSYMSDAVKAGAVTPSHDEEARARYLLYAGFGAILLFLRYEASEPGDIESAIREFMERYGPVTAELY | 0.00707
HMPVEQVWHIAEAGKTKGPFSRASMGRMSADGALTRDTLVWTAGQDGWKKAADVTALATLFT | -0.0499
HMGTSGLTIPRFVSLASGTVHMRAGPGVRYPITWIYKRLGTPLMVMAEHEFWRKVRDAEGTEGWMHRSLLS | -0.00785
HMAHRYQQIADDLGRRVEAGEFAAGRLLPSEATLSGQYKASRVTVRKALEALRTDGLVESRQGFGWFVAAD | 0.262
HMKAKPTLLTPYEERLKGWLETDSRRPKRDRRTGLALFAKLQQEGFTGSYTRVTEYIRRWRDSGG | 0.0729

Sequence | soluble fraction (log2)
HMDEIELLLQDAIQKLPEKQRMVFTLRYYDNLPYEEISKILDMSVSTLKTNYHYAKSKIEQYILDHS | -0.839
HMGETDDDFRELEEFVEKTKFDKLGTFMYSKEEGTPAARLPEQIHGNTKKSRYNKIMSIQQKVSNEN | -0.897
HMDSSSYSAKVGTLIQETRQARGMTQAQLAQALGTSQSAINRIEKGGQNISLDMLNRISEVLSSQIVTLNP | -0.255
HMKNVSVKMILSPESLGEIQVDLVFSKGKDLEIMLRPETAEVAKLIQSNSASLREQLSLEHKGPLSLNVS | -0.405
HMSASSEALKTAVRKVLLNNRMTQDRMARDAGLSGSALSQWLHGKYQGDVPALEGRLAAWLADTQAS | 0.132
HMHHGALKQALLDETARILAEEGESALSLRRLASNLGVSRTAPYNHFDNKDALLSAVAEEGFRR | -0.0708
HMEFSYLEEIGHEKGDLIKGLQLIQQKEGYVSDDAVRAVAENFGMSPAEVEGVLTFYAQFKR | -1
HMSSQGSLEKGYSALLDGRLDDAALAYGAALAANPMERDALLGLAYVAHSKGRREEAQALYRKVLR | -0.53
HMSRVKQERLNRFVEAFEAYFRSVHPGEIDVEYLKSDEFGDIFESILHRVMHTASEEKMHRFKKILLNEM | -1.39
HMNQIDEATAATITTLNFLNTNSEFKIPVGDTATRPGTPAIGMMRFNSENDKAEIYVADFDGDGNPGWINL | -1.52
HMSNYFIEISKDSLARINDEIELDVLRETSDTIIISQEEKTNTISSFIKVLFERQIDILSIQNR | -1.25
HMESIGANIRRLRKERNMSQDELARKAFTNRSNINRYESGKMVPSADTTEKIEEALGVPAGTLAQ | -0.638
HMQLSASQQQILNHAAVNTDGKLVWFPETLKGGARKKVLDSLFSRALITTDGTHWFVAAEGYEALGIP | -0.0982
HMIMTHSALLEKDGFDIVKVHFERPNDDGFDFLDMTLPGEIVYKSFGFSEDEILKLKRYAKNNSSLIWDF | -1.87
HMGIKDRIVYIMEKEKLSIPLFAKKIGIGPSTLLHIIRGKNAPSLQVVQAIHKAYPDIDLNWLI | 0.0346
HMKHKYWEIKERIKKDILNEVYKKGESIPSERDLAGIYDVTRVTVQKAMAMLVQEGYIERIHGKGMFVLKN | -0.0581
HMGETPEILRDWEAAQNAVNDMLSKYAPGGYMGKIIYPLLTPLKERLEAGERTPDLYNAIVEAT | -0.763
HMAMYSREKLKKLREDRGLTQYELAKIAGISVVTLNKIESSDSAKPFVKTLNKIAQALGVGIDELS | ≥ 0.43
HMARTTIATPWDKINDLLQGGLGNGDFGLIFGNPGGGKSWSLVALGGFAVKLGYNVIHYTLE | -1.35
HMVAGQDPVKRQQILDGAKRVFLGVGFDAASMNDITREAGVSKGTIYVYFGSKEELFGALIDR | -0.807
HMSKSIEEIYDEAIRSLANEEYDSAKKLFSYLIDNFSDPEKLPLSLFWLGEIEFSSSNFDQSKIHYIE | -1
HMRGDQLREHLLWTAKDVFLELGFERASMDAVAARAETSKRSLYAHFESKEKLFLAVIDLVRG | -1.65
HMTDYKTNLQEFLQQDGEVEIEYKLLAEVGPSHARQFEVDVMMGDRVLGSGVGRNKKAAEQAAAKVALSKL | -0.375
HMQNYTTIIGVIELRLNDISYDNVRKRYHIGRSGITLIMDRYRDSGLSLEDLKQMTPEKVVDLFYPR | 0.0145
HMKKYISEEQAKQAALETAGGGSVVKIKFTTDDGIKVYEIDIINGNYEYEITVHAETGKILDVDKERIH | -0.404

Sequence | soluble fraction (log2)
HMNVLLGISELSHATGVTPAQLRYWVSQGYIKNYGSNKKNKFSLETVFMVRSIKIFQNQGYTLSASAKRAA | -0.285
HMKAQVKSVLDDIPGIGQTRRKALMRYFKSLEKIREASVEELKEADAMNERAAQSVYAFFHK | -0.222
HMTRDGMTKEAFDSLLEDIMNILLDNGLKATTMGSIAKSLKMSKRTLYEIFSSKSQMVEEAIIASHTKMM | -0.00738
HMGANSAYMAMRDRIQQRLLAELSPGVTRSDTAEVRRVVERIFNETTAELGLPLSRLERNDIFDLVLADIL | -1.72
HMGGLAEIILNAIEIEGGFLPITDKSAPELIQSRLGMSKKAFKEAVGTLYKNRDIAIEPNGLRKI | -0.162
HMSGEITVPNLIGVEAIQAKTLLIQAGFLIKEFYDLDSTQPAGVVIRQAPEAGTTQTIGKSVTITINKQ | 0.106
HMENRLREVRDEIATRHGILPTVFINDRVLMNIHSKKPKDVSQLWQVDGISDEFIMKYGPEFIAEYKKKAK | -0.59
HMYLNYQTIGKRIRLLRKQQHLTQMTLAEMVDKSPTYISLVENGQKGPSLETLIDVANALKVTMDVLLAEY | -1.58
HMKKALTAEQEARVRELYFRGINYYSANRYQDAIAEWRKVLAIDPNHEKAKNNIRQTLILLK | -0.123
HMAMLSKREAEILKLTAKGHSSTDIAQRLTISVNTVEFHRRRIMQKLNAANVAEAVGKAAELGLFF | -0.47
HMALEVPGIAKDKIYRIFGQLYERQQKWEDAIDYYNRAVFFTLSGTDMILYQEDLSRVKQKISL | -0.152
HMKNVENIILEQLKKNIYDDLNNASFEEIILIDAEKSIYKGTIKANYIEYNFKINLSTGEILKWKLK | -0.763
HMDEGQEHYVKETDLPFYSEADPASSVIFPLVLNQKLIEKERKDDWIRALEPTTGLVGWVLLKSLSPQQLS | -1.59
HMAVEQLKSQIGGFLKANREQSFSAQNMADGLRMNSAAGYQDVVNAMNALVRDGEAVEKDGQFSYNVN | -0.0292
HMVLSPAQVRRALMVSGLFTEARVARQLGVPMDLKQILRIILRNTPPQSAMARELESAIDEIESRNAMRD | -0.844
HMSWDNELLERAHKIIELYPQKRSALGPLLYLAQEKDGFISDDSIVEISNLVDITEVQVKSVSSFYSMY | -0.0573
HMNKYQFESKIHIYRATKRMTQQELADLVGVSRQTIMQLERNRYNPSMMLAYGIAKVFDVTIEDLFDFSEV | 0.0457
HMDGVSAEAVKSHIKTLIDGEGAKILSDDTLVDLLNAKGFDIARRTVAKYREAMGIGSSVQRRRQKKMG | -0.0273
HMSTPTVDTKTKLDLYNLLYKKDLNYLDAYNFVLDNFGSDNIDIMFKMLGLDFTNWVIENKPE | 0.0493
HMEPVQPVMYSEFIESVERGEVVEATIQGDKIIATDRSGNRYTVVGSAKDPQLVGQLLERNVAFKFVEE | -0.971
HMSARRHAVKHLDANQLQTRVARMLSEFGLTAKVSKDPNSNALIIDGAPEAQRIAAQLITTIDKE | 0.063
HMTRYEQLAAQIRQQIEDNIWQSGDRLPSLRDTVKQSGLSLMTVLQSYQLLESQGWITARPQSGYYVAHR | -0.169
HMLKVHPRDQEENRLLLLKGERLYEESTGDTRVMIDMWLRKFEEALNSRSRENIEDARRELKEQLAELDN | -0.312
HMQKEIKVPDVANMALSEAVEKLQNEGFKVADEQKEVSSDEIEEGKVVKTSPVAGTKKTKGSEITIYISSG | 0.22
HMDTIYMVVAKNIKYYRLIKSMSKKDLAEAVNVTPMAISNYENGKRKPEIDILKKIANVLGVRVVDFLTVR | -0.194
